What is called Kd is the constant that tells how readily two partners part at equilibrium.

The target of experiment [1] is T1, 粒细胞-巨噬细胞集落刺激因子 (human granulocyte-macrophage colony-stimulating factor, GM-CSF) (human, UniProt P04141 18-144).
T1 construct: also called GM-CSF蛋白
As to the kind of experiment: Not stated at this place (summary of advantages); conflicts with the value in Example 4.

Experiment [2] concerns the target T1, 粒细胞-巨噬细胞集落刺激因子 (human …). As to the kind of experiment: Biolayer interferometry type assay: GM-CSF loaded on SA sensor, nanobody at 1000, 500 and 250 nmol, 30℃. In general terms: BLI is a label-free optical method that tracks binding on a fibre tip over time.

T1 sequence (P04141 18-144 limits assumed): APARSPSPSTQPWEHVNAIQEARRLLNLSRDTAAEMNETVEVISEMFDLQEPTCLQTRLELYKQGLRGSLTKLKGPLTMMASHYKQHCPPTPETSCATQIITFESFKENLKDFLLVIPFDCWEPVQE

B1: 抗GM-CSF纳米抗体G1 (VHH)
VHH: QLQLVESGGGLVQAGGSLRLSCAVSGRPSNVYDMGWFRRVPGKESRLMAYINWSRGSTYYADSVKGRFTISRDNTNNTVYLQMNSLKPEDTAVYYCAARAGPGTPAYNSWGQGTQVTVSS
notes: Alpaca VHH picked from an immune phage library
Regarding B1, the Kd in experiment [1] was found to be 29.5 nM; in experiment [2] it was 93.7 nM.

For the origin of these results see patent CN111690063A (UNIV BEIJING, dated 2020).
